Experimental data from paper PMC9182242, “Copper Binding and Oligomerization Studies of the Metal Resistance Determinant CrdA from Helicobacter pylori” (Molecules, 2022).

Target: the molecule itself
Assay: SEC; analytical SEC, Superose 12 10/300 GL, 20 mM Tris-base pH 7.5, 150 mM NaCl, 3.8 mM nOG; HpCrdA incubated with EDTA (metal chelated); monomer-dimer equilibrium

B1: CrdA protein from Helicobacter pylori (HpCrdA) (natural protein)
chain: QTLKANDLEVKIKSVGNPIKGDNTFILSPTLKGKALEKAIVRVQFMMPEMPGMPAMKEMAQVSEKNGLYEAKTNLSMNGTWQVRVDIKSKEGQVYRAKTSLDL
notes: predicted mass of the monomer ~12.4 kDa; Residues of the pGEX-6P-1 linker probably remain after PreScission cleavage (surmised); also called HP1326; apo-HpCrdA; source: E. coli BL21(DE3), purified (GSTrap, GST cleaved with PreScission protease, Superdex 75 SEC); not shown: GST, N-terminal, cleaved
In the case of B1, the “stoichiometry N” value is reported as 2.
